Ten variants from the supplement of paper PMC10266784 can be followed below.

B1: library; numbered along this chain (parent)
chain: MAAAAAAAAEQQSSNGPVKKSMREKAVERRSVNKEHNSNFKAGYIPIDEDRLHKTGLRGRKGNLAICVIILLFILAVINLIITLVIWAVIRIGPNGCDSMEFHESGLLRFKQVSDMGVIHPLYKSTVGGRRNENLVITGNNQPIVFQQGTTKLSVENNKTSITSDIGMQFFDPRTQNILFSTDYETHEFHLPSGVKSLNVQKASTERITSNATSDLNIKVDGRAIVRGNEGVFIMGKTIEFHMGGNMELKAENSIILNGSVMVSTTRLPSSSSGDQLGSGDWVRYKLCMCADGTLFKVQVTSQNMGCQISDNPCGNTH

Variants of B1 are the subject of the data set. The experiment in a line: SGCB cell-surface expression functional score (HA stain, bin4 vs bin1, normalised to synonymous) (log10 ratio); higher = more cell-surface SGCB (functional). An outline of the steps:
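Using lentivirus at MOI <0.1, HA-tagged, YFP-fused human beta-sarcoglycan codon-saturation libraries were put into HEK293 cells with stable alpha-, gamma- and delta-sarcoglycan expression, in duplicate transductions. YFP-positive cells were collected by sorting 72 hours later, grown 5–7 days, stained on ice with Alexa Fluor 647 anti-HA, fixed, sorted into four 5% intensity bins and amplicon-sequenced. The functional score takes the median, across codons and transductions, of the log ratio of highest-bin to lowest-bin variant frequency. Within each section, synonymous variants were scaled to mean 0, SD 0.5.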
In the case of MAAAAAAAAEQQSSNGPVKKSMREKAVERRSVNKEHNSNFKAGYIPIDEDRLHKTGLRGRKGNLAICVIILLFILAVINLIITLVIWAVIRIGPNGCDSMEFHESGLLRFKQVSDMGVIHPLYKSTVGGRRNENLVITGNNQPIVFQQGTTKLSVENNKTSITSDIGMQFFDPRTQNILFSTDYETHEFHLPSGVKSLNVQKASTERITSNATSDLNIKVDGRAIVRGNEGVFIMGKTIEFHMGGNMELKAENSIILNGSVMVSTTRLPSSSSGDQLGHGDWVRYKLCMCADGTLFKVQVTSQNMGCQISDNPCGNTH [S279H], the “SGCB cell-surface expression functional score (log10)” value is -0.04.
On to MAAAAAAAAEQQSSNGPVKKSMREKAVERRSVNKEHNSNFKAGYIPIDEDRLHKTGLRGRKGNLAICVIILLFILAVINLIITLVIWAVIRIGPNGCDSMEFHESGLLRFKQVSDMGVIHPLYKSTVGGRRNENLVITGNNQPIVFQQGTTKLSVENNKTSITSDIGMQFFDPRTQNILFSTDYETHEFHLPSGVKSLNVQKASTERITSNATSDLNIKVDGRAIVRGNEGVFIMGKTIEFHMGGNMELKAENSIILNGSVMVSTTRLPSSSSGDQLQSGDWVRYKLCMCADGTLFKVQVTSQNMGCQISDNPCGNTH [G278Q], for which the “SGCB cell-surface expression functional score (log10)” value was 0.09.
Take MAAAAAAAAEQQSSNGPVKKSMREKAVERRSVNKEHNSNFKAGYIPIDEDRLHKTGLRGRKGNLAICVIILLFILAVINLIITLVIWAVIRIGPNGCDSMEFHESGLLRFKQVSDMGVIHPLYKSTVGGRRNENLVITGNNQPIVFQQGTTKLSVENNKTSITSDIGMQFFDPRTQNILFSTDYETHEFHLPSGVKSLNVQKASTERITSNATSDLNIKVDGRAIVRGNEGVFIMGKTIEFHMGGNMELKAENSIILNGSVMVSTTRLPSSSSGDQLNSGDWVRYKLCMCADGTLFKVQVTSQNMGCQISDNPCGNTH [G278N]: the “SGCB cell-surface expression functional score (log10)” value is 0.05.
Consider MAAAAAAAAEQQSSNGPVKKSMREKAVERRSVNKEHNSNFKAGYIPIDEDRLHKTGLRGRKGNLAICVIILLFILAVINLIITLVIWAVIRIGPNGCDSMEFHESGLLRFKQVSDMGVIHPLYKSTVGGRRNENLVITGNNQPIVFQQGTTKLSVENNKTSITSDIGMQFFDPRTQNILFSTDYETHEFHLPSGVKSLNVQKASTERITSNATSDLNIKVDGRAIVRGNEGVFIMGKTIEFHMGGNMELKAENSIILNGSVMVSTTRLPSSSSGDQLTSGDWVRYKLCMCADGTLFKVQVTSQNMGCQISDNPCGNTH [G278T], for which the “SGCB cell-surface expression functional score (log10)” value is 0.14.
Under MAAAAAAAAEQQSSNGPVKKSMREKAVERRSVNKEHNSNFKAGYIPIDEDRLHKTGLRGRKGNLAICVIILLFILAVINLIITLVIWAVIRIGPNGCDSMEFHESGLLRFKQVSDMGVIHPLYKSTVGGRRNENLVITGNNQPIVFQQGTTKLSVENNKTSITSDIGMQFFDPRTQNILFSTDYETHEFHLPSGVKSLNVQKASTERITSNATSDLNIKVDGRAIVRGNEGVFIMGKTIEFHMGGNMELKAENSIILNGSVMVSTTRLPSSSSGDQLSSGDWVRYKLCMCADGTLFKVQVTSQNMGCQISDNPCGNTH [G278S] stands 0.15; under MAAAAAAAAEQQSSNGPVKKSMREKAVERRSVNKEHNSNFKAGYIPIDEDRLHKTGLRGRKGNLAICVIILLFILAVINLIITLVIWAVIRIGPNGCDSMEFHESGLLRFKQVSDMGVIHPLYKSTVGGRRNENLVITGNNQPIVFQQGTTKLSVENNKTSITSDIGMQFFDPRTQNILFSTDYETHEFHLPSGVKSLNVQKASTERITSNATSDLNIKVDGRAIVRGNEGVFIMGKTIEFHMGGNMELKAENSIILNGSVMVSTTRLPSSSSGDQLYSGDWVRYKLCMCADGTLFKVQVTSQNMGCQISDNPCGNTH [G278Y], 0.08.
Turning to MAAAAAAAAEQQSSNGPVKKSMREKAVERRSVNKEHNSNFKAGYIPIDEDRLHKTGLRGRKGNLAICVIILLFILAVINLIITLVIWAVIRIGPNGCDSMEFHESGLLRFKQVSDMGVIHPLYKSTVGGRRNENLVITGNNQPIVFQQGTTKLSVENNKTSITSDIGMQFFDPRTQNILFSTDYETHEFHLPSGVKSLNVQKASTERITSNATSDLNIKVDGRAIVRGNEGVFIMGKTIEFHMGGNMELKAENSIILNGSVMVSTTRLPSSSSGDQLVSGDWVRYKLCMCADGTLFKVQVTSQNMGCQISDNPCGNTH [G278V], the “SGCB cell-surface expression functional score (log10)” value is 0.32.
With MAAAAAAAAEQQSSNGPVKKSMREKAVERRSVNKEHNSNFKAGYIPIDEDRLHKTGLRGRKGNLAICVIILLFILAVINLIITLVIWAVIRIGPNGCDSMEFHESGLLRFKQVSDMGVIHPLYKSTVGGRRNENLVITGNNQPIVFQQGTTKLSVENNKTSITSDIGMQFFDPRTQNILFSTDYETHEFHLPSGVKSLNVQKASTERITSNATSDLNIKVDGRAIVRGNEGVFIMGKTIEFHMGGNMELKAENSIILNGSVMVSTTRLPSSSSGDQLWSGDWVRYKLCMCADGTLFKVQVTSQNMGCQISDNPCGNTH [G278W], the “SGCB cell-surface expression functional score (log10)” value is 0.16.
For MAAAAAAAAEQQSSNGPVKKSMREKAVERRSVNKEHNSNFKAGYIPIDEDRLHKTGLRGRKGNLAICVIILLFILAVINLIITLVIWAVIRIGPNGCDSMEFHESGLLRFKQVSDMGVIHPLYKSTVGGRRNENLVITGNNQPIVFQQGTTKLSVENNKTSITSDIGMQFFDPRTQNILFSTDYETHEFHLPSGVKSLNVQKASTERITSNATSDLNIKVDGRAIVRGNEGVFIMGKTIEFHMGGNMELKAENSIILNGSVMVSTTRLPSSSSGDQLPSGDWVRYKLCMCADGTLFKVQVTSQNMGCQISDNPCGNTH [G278P], the “SGCB cell-surface expression functional score (log10)” value is 0.23.
With MAAAAAAAAEQQSSNGPVKKSMREKAVERRSVNKEHNSNFKAGYIPIDEDRLHKTGLRGRKGNLAICVIILLFILAVINLIITLVIWAVIRIGPNGCDSMEFHESGLLRFKQVSDMGVIHPLYKSTVGGRRNENLVITGNNQPIVFQQGTTKLSVENNKTSITSDIGMQFFDPRTQNILFSTDYETHEFHLPSGVKSLNVQKASTERITSNATSDLNIKVDGRAIVRGNEGVFIMGKTIEFHMGGNMELKAENSIILNGSVMVSTTRLPSSSSGDQLRSGDWVRYKLCMCADGTLFKVQVTSQNMGCQISDNPCGNTH [G278R], the “SGCB cell-surface expression functional score (log10)” value is 0.05.
